For the assay, the target named is Native MsrA/B on the surface of N. gonorrhoeae 1291 cells (N. gonorrhoeae strain 1291) (UniProt P14930). Nature of the assay: whole cell ELISA, N. gonorrhoeae 1291 strains.

The results in this text go back to patent US20250352630A1.

A value given as a limit tells only on which side of the number the result lay.

Native MsrA/B on the surface of N. gonorrhoeae 1291 cells (N. gonorrhoeae strain 1291), sequence (P14930 1-519, tags or fused parts left off): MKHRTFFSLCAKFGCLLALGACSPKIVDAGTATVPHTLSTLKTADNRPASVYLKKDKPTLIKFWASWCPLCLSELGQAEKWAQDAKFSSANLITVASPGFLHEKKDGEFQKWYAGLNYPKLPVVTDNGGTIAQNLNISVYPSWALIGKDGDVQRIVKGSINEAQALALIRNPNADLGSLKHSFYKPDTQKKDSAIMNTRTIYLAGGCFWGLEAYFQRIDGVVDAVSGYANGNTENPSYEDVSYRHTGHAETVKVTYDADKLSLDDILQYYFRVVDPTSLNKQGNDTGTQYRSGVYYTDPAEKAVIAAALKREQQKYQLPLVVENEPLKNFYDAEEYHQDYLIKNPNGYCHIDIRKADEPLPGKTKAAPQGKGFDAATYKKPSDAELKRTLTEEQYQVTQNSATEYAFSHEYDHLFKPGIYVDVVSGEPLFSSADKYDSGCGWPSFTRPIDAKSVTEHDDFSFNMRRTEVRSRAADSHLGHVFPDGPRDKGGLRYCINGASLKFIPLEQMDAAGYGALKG

Pre-immune mouse sera (antibody) showed an ELISA titre vs whole cells of under 200 titre.
